Data on 1 substance can be found in US20040037830A1.

The assay deals with IL-8 receptors on human neutrophils. Put plainly: 125I-IL-8 competition with unlabelled IL-8, Scatchard analysis, human neutrophils.

Take “human 72 amino acid IL-8 (interleukin-8), recombinant, made in E. coli (from UniProt P10145 28-99) (ligand)”: the binding sites/cell (binding sites/cell) is 31000.
